The values below come from the nanobody polyreactivity screen of Harvey et al. (2022).

A short description of this data set: yeast display, Sf9 membrane polyspecificity reagent, FACS + sequencing; frameworks hold sequencing errors. In short, it runs like this:
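Nanobodies from a synthetic yeast display library (Saccharomyces cerevisiae BJ5465), induced 36–48 hours with galactose, were stained 1 hour at 4 °C with 10% biotinylated, detergent-solubilized Sf9 membrane reagent, enriched on streptavidin microbeads, then FACS-sorted. Anti-HA (expression) and streptavidin (reagent binding) fluorescence set low and high (top ~1%) gates. Polyreactivity labels come from the gate of origin. Genes were colony-PCR amplified, MiSeq 2 × 250 sequenced and filtered by CDR length.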
For the sequence “QVQLVESGGGVVQAGGSLRLSCAASGFTPGNVMGGYRQAPGKERELVAAISWTGDSTYYAASVKGRFTISRDNAKNTVYLQMNSLKPEDTAVYYCAADGVPGRALDYEYWGQGTQVTVSS”, the “polyreactivity (PSR sort gate)” value is listed as “high polyreactivity”.

Regarding “QVQLVESGGGVVQAGGSLRLSCAASGGIILEYVMGWYRQARGEERELVAAISWSGTSTYYADSVKGRFTISRDNAKNTVYLQMNSLKPEDTAVYYCAKSEGVYSGWYGVDDYDYWGQGTQVTVSS”, the “polyreactivity (PSR sort gate)” value is reported as “low polyreactivity”.

“QVQLVESGGGVVQAGGSLRLSCAASGINFGRNTMGWYRQAPGKERELVAAIDSGGNTYADSVKGRFTISRDNAKNTVYLQMNSLKPEDTAVYYCAVDGGEFSSYGYWGQGTQVTVSS”: the “polyreactivity (PSR sort gate)” value is “low polyreactivity”.

Turning to “QVQLVESGGGVVQAGGSLRLSCAASGITFQYYDMGWFRPAPGKERELVAAISWSTDMTYADSVKGRFTISRDNAKNTDYLQMNSLKPEDTAVYYCAASTYEYTSYDYWGQGTQVTVSS”, the “polyreactivity (PSR sort gate)” value was “low polyreactivity”.

For the sequence “QVQLVESGGGVVQAGGSLRLSCAASGLIFSPYAMGWYRPAPGKERELVAVITRSGGRTYYADSVKGRFTISRDNAKNTVYLQMNSLKPEDTAVYYCAATPKSWSSSTRDYWGQGTQVTVSS”, the “polyreactivity (PSR sort gate)” value is “high polyreactivity”.

Take “QVQLVESGGGVVQAGGSLRLSCAASGLTFKFYAMGWYIQAPGKERELVAAINRSGSSTYYADSVKGRFTISRDNAKNTVYLQMNSLKPEDTAVYYCAKDSFTSTRQYDYWGQGTQVTVSS”: the “polyreactivity (PSR sort gate)” value is recorded as “low polyreactivity”.

Consider “QVQLVESGGGVVQAGGSLRLSCAASGNIFFGNAMGWYRQAPGKERELVAAITKRGGSTYYADSVKGRFTISRDNAKNTVYLQMNSLKPEDTAVYYCAAVSYSKRTWSMNYWGQGTQVTVSS”, for which the “polyreactivity (PSR sort gate)” value is recorded as “high polyreactivity”.

Take “QVQLVESGGGVVQAGGSLRLSCAASGRIFLKYTMGWYRQAPGKARELVAAISRGGSTYYADSVKGRFTISRDNAKNTVYLQMNSLKPEDTAVYYCAATSYRRTGYNYWGQGTQVTVSS”: the “polyreactivity (PSR sort gate)” value was “high polyreactivity”.

Regarding “QVQLVESGGGVVQAGGSLRLSCAASGRIFRINGMGWYRQAPGKEREFVAAITSGGGTYYADSVKGRFTITRDNAKNTVYLQMNSLKPEDTAVYYCAAPSYRTRYYYWGQGTQVTVSS”, the “polyreactivity (PSR sort gate)” value is recorded as “high polyreactivity”.

As for “QVQLVESGGGVVQAGGSLRLSCAASGRIIKSYAMGWYRQAPGKERDLVAAITRGGRTSYADSVKGRFTISRDNAKNTVYLQMNSLKPEDTAVYYCADDGGWRYHPFSSLFDYWGQGPQVTVSS”, the “polyreactivity (PSR sort gate)” value is given as “low polyreactivity”.

In the case of “QVQLVESGGGVVQAGGSLRLSCAASGRIISYNAMGWYRQAPGKERELVAAISWGGGSTYYADSVKGRFTISRDNAKNTVYLQMNSLKPEDTAVSYCAKGWYRIKRNDYWGQGTQVTVSS”, the “polyreactivity (PSR sort gate)” value is reported as “low polyreactivity”.

Regarding “QVQLVESGGGVVQAGGSLRLSCAASGRNFGHYTMGWYRQAPGIERELVARISQSGGSTRYADSVKGRFTISRDNAKNTVYLQMNSLKPEDTAVYYWATYRRHFFYFAIPGYSSAYEYSGQGTQVTVSS”, the “polyreactivity (PSR sort gate)” value is “high polyreactivity”.

Regarding “QVQLVESGGGVVQAGGSLRLSCAASGRTFPGNAMGWYRQAPGKERELVASITWSTGSTYYADSVKGRFTISRDNAKNTVYLQMNSLKPEDTAVYYCAADQSVRSYQYSVHRGYWGQGTQVTVSS”, the “polyreactivity (PSR sort gate)” value is “high polyreactivity”.

In the case of “QVQLVESGGGVVQAGGSLRLSCAASGRTFPGYAMGWYRQAAGKERELVAAITRGSTNYADSVKGRFTISRDNAKNTVYKQMNSLKPEATAVYYCAADFQYYFFWEEDYWGHGTQVTVSS”, the “polyreactivity (PSR sort gate)” value is “low polyreactivity”.

Consider “QVQLVESGGGVVQAGGSLRLSCAASGRTFYRYAMGWYRQAPGKERELDAAISWRGGSTRYADSVKGRFTISRDNAKNTVYFQMNSLKPEDTAVYSCATRSTYWGWSSYGMDHWGQGTQVTVSS”, for which the “polyreactivity (PSR sort gate)” value is “high polyreactivity”.

Regarding “QVQLVESGGGVVQAGGSLRLSCAASGSIFDGYARGWYRQAPGKERELVAAITRDGGSTHYADSVKGRFTISRDNAKNTVYLEMNSLKPEDTAVYYCASRDHAFRYYRNPFKGKYDYWGQGTQVTVSS”, the “polyreactivity (PSR sort gate)” value is reported as “low polyreactivity”.

Take “QVQLVESGGGVVQAGGSLRLSCAASGSIFISNAMGWYRQAPGTERELVAAITLTGTSTYYADSVKGRFTISRDNAKNTVYLQMNSLKPEDTAVYYCAAEYYYIVTYDFGYWGQGTQVTVSS”: the “polyreactivity (PSR sort gate)” value is “low polyreactivity”.

Regarding “QVQLVESGGGVVQAGGSLRLSCAASGSIFSLYAMGWYRQAPGNERELVDAISSSGTSTYYADSVKGRFTISRDNAKNSVYLHMNSLKPEDTAVYYCNAYRRRATYNGDYWGQGTQVTVSS”, the “polyreactivity (PSR sort gate)” value is reported as “high polyreactivity”.

In the case of “QVQLVESGGGVVQAGGSLRLSCAASGSTFFYYAMGWYRQAPGKERELVATIRGSAGRTYYADSVKGRFTISRDHAKYTVYLQMNCLKPEDTAVYYCARRYWPGSAYWIYDYWGQGTQVTVSS”, the “polyreactivity (PSR sort gate)” value is listed as “high polyreactivity”.

As to “QVQLVESGGGVVQAGGSLRLSCAASGSTFGYYAMGWYRQAPGKERELVAAISQGAGRTYFADSVKGRFTISRDIAKNTVYLQMNSLKPEDTAVYYCAGSVTVHRWAYGYCGQGTQVTVSS”, the “polyreactivity (PSR sort gate)” value was “high polyreactivity”.

For “QVQLVESGGGVVQAGGSLRLSCAASGSTFYANAMGWSRQAPGKERELVAAISSGGSTYYADSVKGRFTISRDNAKNTVYLQMNSLKPDDTAVYYCAKPFYSYRYGFGYWGQGTQVTVSS”, the “polyreactivity (PSR sort gate)” value is given as “low polyreactivity”.

Consider “QVQLVESGGGVVQAGGSLRLSCAASGSTFYPNAMGWYRQAPGKERELVAAISRGTRTKYADSVKGRFTISRDNAKNTVYLQMNSLKPEDTAVYYCAADTGTGLDWGQGTQVTVSS”, for which the “polyreactivity (PSR sort gate)” value is “high polyreactivity”.

Turning to “QVQLVESGGGVVQAGGSLRLSCAATGSIFISYDTGLYRQAPGKESELVAAITWSGDSTYYADSVKARFTISRDNAKNSVYLQMNSLKPEDTAVYYCAADWYFRNQRGYYWGQGTQVTVSS”, the “polyreactivity (PSR sort gate)” value is given as “low polyreactivity”.

For “QVQLVESGGGVVQAGGSLRLSCAAYGFIYKQNAMGWYRQAPGKERELVATITRGGDTKYADSVKGRFTISRDNAKNTVYLLMNSLKPEDTAVEYCAARYTPSSSIYRFYNFYGYDYWGQGTQVIVSS”, the “polyreactivity (PSR sort gate)” value is “high polyreactivity”.

With “QVQLVESGGGVVQAGGSLRLSGAASGSTLLRNAMGWYRQAPGKAWELVAVITYSGGSTYYADSVKGRFTISRDQAKNTVYLQMNSLIPEDTAVYYCAADKWYYVRYATDAYSKFDYWGQGTQVTVSS”, the “polyreactivity (PSR sort gate)” value is reported as “low polyreactivity”.

As for “QVQLVESGGGVVQAGGSLRLSSAASGRIFQAYAMGWYRQAPGKEWELVAAISRSGGGTYYSDSVKGRFTISRDYAKNTVYLQMNSLKPEDTAVYYCNARGSTARGRGYWGQGTQVTVTS”, the “polyreactivity (PSR sort gate)” value is “high polyreactivity”.

For “QVQLVESGGGVVQAGRSLRLSCAASGSPFAYNSMGWYRKAPGKERELVAAISWRGTRTYYADSVKGRFTISRDTAKNTVNLQMNSLKPEDTAVYYCATKYGISYDYWGQGTHVTVSS”, the “polyreactivity (PSR sort gate)” value was “high polyreactivity”.

On to “QVQLVESGGGVVQAGVTLRLSCAASGRIFHYNAMGWYRQAPGKEREMVAAFTWIGGSTYADSVKGRFTISRDNSKNSVYLLMNSLKPEDTAVYYFNARYIYRFDFWGQGTQVTVSS”, for which the “polyreactivity (PSR sort gate)” value is “low polyreactivity”.

On to “QVQLVESGGGVVQARGSLRLSCAASGRIFDNAMGWYRQAPGKERELVAAISGGSTYYADSVKGRFTISRDNAKNTVYLQMHSLKPEDTAVYYCNTDPLGRTVVYGGDDYWGQGTQVTVSS”, for which the “polyreactivity (PSR sort gate)” value is reported as “low polyreactivity”.

For “QVQLVESGGLLVKAGGSLRLSCAASGSIFYLYVMGWYRQAPGIERELVAANTWSGGSTYYADSVKGRFTISRDNAKNTVYLQMNILIPEDTAVYYCAARGYVPYVKYDYWGQGTQVTVSS”, the “polyreactivity (PSR sort gate)” value was “high polyreactivity”.
